Measurements published in paper PMC3707907, “TdIF1 Recognizes a Specific DNA Sequence through Its Helix-Turn-Helix and AT-Hook Motifs to Regulate Gene Transcription”.

Key:
TdIF1 (His-tagged) [1] = target: T1, TdIF1 (His-tagged) (UniProt Q9H147 1-329); test: EMSA; EMSA: 10 mM Tris-HCl pH 7.5, 100 mM NaCl, 1 mM EDTA, 1 mM DTT, 5% glycerol, 5 pmol probe, 100 ng protein in 10 ul, temperature not stated; GST pull-out: elution in 50 mM Tris-HCl pH 7.4, 5 mM beta-mercaptoethanol, 0.25% Tween 20, 10% glycerol, 150-350 mM NaCl; details: protein: recombinant; tags: His; chain copies: 2; label: biotin
T1 sequence: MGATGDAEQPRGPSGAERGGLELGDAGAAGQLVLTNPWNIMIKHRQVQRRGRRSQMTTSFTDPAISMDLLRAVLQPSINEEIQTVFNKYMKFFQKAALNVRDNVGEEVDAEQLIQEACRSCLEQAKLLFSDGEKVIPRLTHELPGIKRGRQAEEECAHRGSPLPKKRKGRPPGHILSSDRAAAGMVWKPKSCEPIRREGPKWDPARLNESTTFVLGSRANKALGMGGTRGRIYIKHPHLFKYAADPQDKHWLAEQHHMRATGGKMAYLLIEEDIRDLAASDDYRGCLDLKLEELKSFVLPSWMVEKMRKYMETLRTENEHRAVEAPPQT

TdIF1 (His-tagged) [2] = target: T1, TdIF1 (His-tagged); test: competition; EMSA vs biotin-dsAT; 5, 15, 45 pmol; complex decreased; EMSA: 10 mM Tris-HCl pH 7.5, 100 mM NaCl, 1 mM EDTA, 1 mM DTT, 5% glycerol, 5 pmol probe, 100 ng protein in 10 ul, temperature not stated; GST pull-out: elution in 50 mM Tris-HCl pH 7.4, 5 mM beta-mercaptoethanol, 0.25% Tween 20, 10% glycerol, 150-350 mM NaCl; details: protein: recombinant; tags: His; chain copies: 2
TdIF1 (His-tagged) [3] = target: T1, TdIF1 (His-tagged); test: competition; EMSA vs biotin-dsAT; 5, 15, 45 pmol; slightly weaker than competitor I; EMSA: 10 mM Tris-HCl pH 7.5, 100 mM NaCl, 1 mM EDTA, 1 mM DTT, 5% glycerol, 5 pmol probe, 100 ng protein in 10 ul, temperature not stated; GST pull-out: elution in 50 mM Tris-HCl pH 7.4, 5 mM beta-mercaptoethanol, 0.25% Tween 20, 10% glycerol, 150-350 mM NaCl; details: protein: recombinant; tags: His; chain copies: 2

B1: biotin-dsAT probe (32-bp AT-rich dsDNA) (dsDNA)
DNA 1: CGGTATTAAAAATTACTGACAATATTAAATTAGATC
DNA 2: TAATTTAATATTGTCAGTAATTTTTAATACCG
- binding result (TdIF1 (His-tagged) [1]): binds

B2: Competitor I (SELEX clone 10; AT-tract + GNTGCATG) (dsDNA)
DNA 1: CGCCAAATAAAAGTTGCATGGTCG
DNA 2: CGACCATGCAACTTTTATTTGGCG
- binding result (TdIF1 (His-tagged) [2]): binds

B3: Competitor III (GNTGCATG only, AT-tract mutated) (dsDNA)
DNA 1: CGCCAAGCCTCAGTTGCATGGTCG
DNA 2: CGACCATGCAACTGAGGCTTGGCG
- binding result (TdIF1 (His-tagged) [3]): binds
